According to patent US20020009726A1 (LA JOLLA CANCER RESEARCH FOUNDATION, published 2002):

Experiments:
[1] = biological target: T1, LexA fusion of Bcl-2 (positions 83-218) (UniProt P0A7C2 1-202; P10415 83-218); assay: yeast two-hybrid, growth on histidine-deficient medium (HIS3 reporter)
T1 construct: also called Bcl-2 (83-218)
Procedure: (§1) The 166 clones were cured of LexA/CD40-encoding plasmids by growing the cells in tryptophan-containing medium. […] The mated cells were selected for growth in medium lacking tryptophan and leucine to obtain cells that contained both a pACT-B cell clone and a LexA-fusion protein. Colonies were transferred to histidine-deficient plates or histidine-containing media with X-Gal. Colonies expressing β-gal activity were identified using a plate assay and a filter assay. The plate assay was performed on the X-Gal containing plates -12 hr after plating according to previous methods (see Chien et al., Proc. Natl. Acad. Sci., USA 88:9578-9582 (1991), which is incorporated herein by reference). The β-gal filter assay was performed after 1 hr culture as described previously (Sato et al., supra, 1994; Breeden and Nasmyth, Cold Spring Harbor Symp. Quant. biol. 50:643-650 (1985), which is incorporated herein by reference).

[2] = biological target: LexA fusion of Ha-Ras (V12) (UniProt P0A7C2 1-202; P01112 1-189, limits assumed); assay: as above
Procedure: as §1

LexA fusion of Lamin-C = biological target: T2, LexA fusion of Lamin-C (UniProt P0A7C2 1-202; P02545 66-230); assay: yeast two-hybrid, beta-galactosidase (lacZ reporter)
T2 sequence (looked up): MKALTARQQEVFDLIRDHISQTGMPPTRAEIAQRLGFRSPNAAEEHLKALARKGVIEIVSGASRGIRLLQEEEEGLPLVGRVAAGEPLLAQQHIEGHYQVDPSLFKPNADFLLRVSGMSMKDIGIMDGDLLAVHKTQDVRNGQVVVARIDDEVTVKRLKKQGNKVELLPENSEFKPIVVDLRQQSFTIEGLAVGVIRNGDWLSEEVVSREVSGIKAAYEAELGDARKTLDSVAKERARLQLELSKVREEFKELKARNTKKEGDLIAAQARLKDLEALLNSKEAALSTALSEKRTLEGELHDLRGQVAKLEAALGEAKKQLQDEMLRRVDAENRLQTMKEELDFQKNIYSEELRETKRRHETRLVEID
Procedure: as §1

binding result [1]: no binding
binding result [2]: no binding
binding result (LexA fusion of Lamin-C): no binding
B1: CAP-1 (pACT2229/GAL4 fusion) (other, not shown: small tags and cut ends)
chain: HDQMLSVHDIRLADMDLRFQVLETASYNGVLIWKIRDYKRRKQEAVMGKTLSLYSQPFYTGYFGYKMCARVYLNGDGMGKGTHLSLFFVIMRGEYDALLPWPFKQKVTLMLMDQGSSRRHLGDAFKPDPNSSSFKKPTGEMNIASGCPVFVAQTVLENGTYIKDDTIFIKVIVDTSDLPDP
notes: Yeast two-hybrid prey; also called pACT121; CD40 associated protein-1
